# Reference: the nanobody polyreactivity screen of Harvey et al. (2022)
# Experiment: yeast display, Sf9 membrane polyspecificity reagent, FACS + sequencing; frameworks hold sequencing errors
# Summary of the method: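 Using colony PCR, genes from sorted yeast display clones were amplified, then sequenced on MiSeq at 2 × 250 and filtered by CDR length. The clones had been stained with 10% biotinylated, detergent-solubilized Sf9 membrane reagent for 1 hour at 4 °C and sorted by FACS into low and high (top ~1%) gates on anti-HA and streptavidin fluorescence. Polyreactivity labels come from the gate of origin.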
row,Sequence,polyreactivity (PSR sort gate)
1,QVQLVESGGGLVQAGGSLRLICAASGFIFESNAMGWYRQAPGKERELVAAITSAGRTYYADSVKGRFTISRDNAKNTVYLQMNSLKPEDNAVYYCNATRSRYRYDYWGQGTQVTVSS,high polyreactivity
2,QVQHVESGRGLVQAGGSLRLSCAASGSIFRWYTMGWYRQAPGKERELVAAITSGGTTKYADSVKGRFTISRDNAKNTVYLQMNSLKPEDTAVYYCARRHRYRYDWGQGTQVTVSS,high polyreactivity
3,QFQLVESGGGLVQAGASLRLSCASSLSTFDHNAMGSYRQAPGKESELVAAISSSGGRTYYADSVKGRFTISRDNAKNTVYLQMNSLKPEDTAVYYCAAVVRRAPEFDYSGQGTQVTVSS,high polyreactivity
4,QVQLVESAGGLVQAGGSLRLSCAASGRIFWGNAMGWYRQAPGKERELVAAITRRGGTKFYADSVKGRFTISRDNAKNTVYLQMNSLIPEDTAVYYCAARRYGQYDGYDSWGQGTQVTVSS,high polyreactivity
5,QVQLVESGAGLVQAGGSRRLSCAASGSIFGVNAMGGYRQAPGKERELVASITGGDSTNYADSVKGRFTISRDNAKNTVYLQMNSLKPEDTAFYYCAKDHYYRYEEGDYWGQGTQVTVSS,low polyreactivity
6,QVQLVESGGGLVQAGGSLRLSCAASGINFQNYAMGLYRQAPGKEREFVASISFSGASTYYADSVKGRFTISRDKAKNTVYLQMNSLKPDDTAVYYCAARYLYGPKYYYWGQGTQVTVSS,high polyreactivity
7,QVQLVESGGGLVQAGGSLRLSCAATGSIFYQNAMGWYRQAPGKDRELVAAISSRGGRTYYADSVKGRFTISRDNAKNTVYLQMNSLKTEDTAVYYFNAARFPYSKDYDYWGQGNQVTVSS,high polyreactivity
8,QVQLVESGGGLVQAGGSLRLSCAASGRTFTYYAMGWYRQAPGKERELVAAIRYTGGSTHYADSVKGRFTISRDNAKNTVYLQMNSLKPEDKAVYYCAARRAYTRGGTVYFGYYYWGQGTQVTVSS,high polyreactivity
9,QVQLVESGGGLVQAGGSLRLSCAASGRTFSLNAMGWYRQAPGKERELVAAINRGGTTYYADSVKGRFTISRDNAKNTVYVQMNSLKPEDTAVYYCAARYISSYDWGQGTQVTVSS,high polyreactivity
10,QVQLEESGGGLVQAGGSLSLSCAASGSIFSNYAMGWYRQAPGKERELVAAIRISGGSTKYADSVKGRFTISRDNAKNTVYLQMNSLKPEDTAVYYCAAANSKRHRRYNYWGQGTQVTVSS,high polyreactivity
11,QVQLVESGVGLVQAGGSLRLSCAASGRIVWGYAMGWYRQAPGKERELVATITRGGSTNYADSVKGRFTISRDNAKHTVYLQMNSLKPEDTAVYYCARDWGKSEYDYWGQGTQVTVSS,high polyreactivity
12,QVQLVESGGGLVQAGGSLRLSCAASGRIFFRYVMGWYRQAPGKERELVAAISSGGRTYYADSVKGRFTISRDNAKNTVYLQMNSLKPEDTAVYYCAADLLLYSSQDNDYWGQGTQVTVSS,low polyreactivity
13,QVQLVESGGGLVQAGGSLRLSWAASGSIFGNAMGWYRQAPGKEREFVAAISSSGSSTYYADSVKGRFTISRDNAKNTVYLQMNSLKPEDTAVYYCAKRRRSAAPKYDYWGQGTHVTVSS,high polyreactivity
14,QVQLVESGGGLVQAGGSLRLSCAASGSIFNINAMGWYRQAPGKERELVAAISKRGGSTYYADSVKGRFTISRDNAKNTVYLQLNSLKPEDTAVYYCAADLTGVDYDYWGQGTQVTVSS,high polyreactivity
15,QVQLVESGGGLVQAGGSLRLSCAASGSIFPPYAMGWYRQAPGKERELVATITIRGGSTYYADSVKGRFTISRDNAKNSVYLQMNSLKPEDTAVYYCAADYTKYYRRYYYWGQGTQVTVSS,high polyreactivity
16,QVQLVESGGGLVQAGGSLRLSCAASGFIFLLNAMGWYRQAPGKEREFVAAISWGGGSTYYADSVKGRFTISRDNAKNTVYLQMNSLKPEDTAVYYCAAKPGKTPLTGHRGPYDTGYGYWGQGTQVTVSS,low polyreactivity
17,QVQLVESGAGLVQAGGSLRLSCAASGSIFSPYDMGWYRPAPGKERELVAAISRSGRTHYADSVKGRFTISRDNAKNTVYLQMNSLKPEDTAVYYCAAGVVSGYYYWGHGTQVTVSS,high polyreactivity
18,QVQLVESGGGLVQAGGSLRLSCAASGSIFRINAMGWYRQAPGKERELVAAISWSGGSTYYADSVKGRFTISRDNAKNTVYLQMNSLKPEDTAVYYCAAVVSKSSFDYWGQGTQVTVSS,low polyreactivity
19,QVQLVESGGGLVQAGGSLRLSCSASGLIFSSYAMGWYRPAPGKERELVAAISRGGSTNYADSVKGRFTISRDNAKNTVYLQMNSLKPEDTAVYYCNDYSWVNRYDYWGQGTQVTVSA,high polyreactivity
20,QVQLVESGGGLVQAGGSLRLSCAASGRTFWPNVMGWYRQAPGKERELVAAITWGDASTYYADSVKGRFTISRDNAKNTVYLQMNSLKPEDTAGYSCAASDYRSTYDYWGQGTQVTVSS,low polyreactivity
21,QVQLVESGGGLVQAGGSLRLSCAASGFTFSYYAMGWYRQAPGKERELVAAISSGGSTYYADSVKGRFTISRDNAKNTVYLQMHRLKPEDTAVYYCNVLNYSSRHYLFSYDYWGQGTQVTVSS,high polyreactivity
22,QVQLVESGGGLVQAGGSLRLSCAASGSIFFDGNAMGWYRQAPGKERELVAAISVSGGSTYYADSVKGRFTISRDNAKNTVYLQMNSLKPDDTAVYYCAKFPSKSYVPGDYWGQGTQVTVSS,low polyreactivity
23,QVQLVESGGGLVQAGGSLRLSCAASGSIFNRYSMGWYRQEPGKERELVASIRGTGSTYYADSVKGRFTISRDNAKNTVYLQMNSLKPEDTAVDYCAARPGYLYSKYNYWGQGTQVTVSS,high polyreactivity
24,QVQLEESVGGLVQEGGSLRLTCAASGRIFGNTMGWYRQAPWKEMELVAAITRSGVSTYYADSVKGRFTSSRDNAKNTVYLQMNSLKPEDTAVYYCADASSYYRGHYDYWGQGTQVTVSS,high polyreactivity
25,QVQLVEAGGGLVQAGGSLRLSCAASGRTFTYYTMGWYRQAPGKERELVATITSGGITNYADSVKGRFTISRDNAKNTVYLQMNSLKTEDTAVYYCDKRWVNKYYYWGQGTQVTVSS,high polyreactivity
26,QVQLVESGGGLVQAGGSLRLSCAASGYTRFYAMGWYRQAPGKERELVAAISSSGGTTYYADSVKGRFTISRDNAKNTVYLQMNSLKPEDTAVYYCAKYVSYSRTLYDYWGQGTQVTVSS,high polyreactivity
27,QDQLVESGGGLVQAGGSLRLSCAASGFTFSRYAMGWYRQAPGKERELVAAINYSGGSTYYADSVKGRFTISRDNAKNTVYLQMNSLKPEDTAVYYCATGGTKPAYKGHYYWGQGTQVTVSS,low polyreactivity
28,QVQLVESGGGLVQAGGSLRLSCAASGTFFGYAMGWYRQAPGKERELVAAITSGGSTYYADSVKGRFTISRDNAKNTVYLQMNSLKPEDTAVYYCARVYSRWSYRYDYWGQGTQVTVSS,low polyreactivity
29,QVQIVESGAGLVQAGGSLRLSCAASGSIYAPNAMGWYRQAPGKERELVAAISRSGGRTYYADSVKGRFTISRDNAKNTVYLQMNSLKPEDTAVYYCAADYKHQRTYGSWGQGTQVSVSS,high polyreactivity
30,QVQLVESGGGLVQAGGSLRLSCAASGRIFSKYTMGWYIQAPGKEMELVAAISGSGTSTYYADSVKGRFTISRDNAKNTVYLQMNSLKPEDTAVYYCNAVKSWGHPGRYYWGQGTQVTVSS,high polyreactivity
